Assay results published in article PMC7082075.
Values joined by “and” are separate entries in the source; they are usually repeats but may differ in a detail not shown here. Equal values may be shown once.

Legend:
[1] = target: PX domain of SNX5 (SNX5^PX) (UniProt Q9Y5X3); test: ITC; Fig 2B: CI-MPR (aa21–48) WT or alanine mutants titrated into SNX5^PX; 100 mM Hepes pH 7.5, 300 mM NaCl, 2 mM βME, 25°C; single values of triplicates
[2] = target: PX domain of SNX5 (SNX5^PX) (UniProt Q9Y5X3); test: ITC; Fig 1D: approximately 2–3 mM of peptides titrated into SNX5^PX (300 μM); 100 mM HEPES pH 7.5, 300 mM NaCl, 2 mM βME, 25°C; one set of sites model; single values of triplicates
[3] = target: PX domain of SNX5 (SNX5^PX) (UniProt Q9Y5X3); test: ITC; S4C Fig: approximately 0.5–1 mM of CI-MPR (aa21–48) WT or loop-deletion peptides titrated into SNX5^PX (50 μM); 100 mM HEPES pH 7.5, 300 mM NaCl, 2 mM βME, 25°C; one set of sites model; single values of triplicates
[4] = target: PX domain of SNX32 (SNX32^PX); test: ITC; S1B Fig: approximately 2–3 mM of CI-MPR (aa21–48) peptide titrated into approximately 100–300 μM of SNX5^PX, SNX6^PX or SNX32^PX; 100 mM HEPES pH 7.5, 300 mM NaCl, 2 mM βME, 25°C; one set of sites model; single values of triplicates
[5] = target: PX domain of SNX5 (SNX5^PX) (UniProt Q9Y5X3); test: as above
[6] = target: PX domain of SNX6 (SNX6^PX) (UniProt Q9UNH7); test: as above
SNX5^PX [7] = target: SNX5^PX (UniProt Q9Y5X3); test: ITC; approximately 2–3 mM CI-MPR (aa21–48) titrated into approximately 100–300 μM SNX5^PX, SNX6^PX or SNX32^PX; 100 mM HEPES pH 7.5, 300 mM NaCl, 2 mM βME, 25°C (S1B Fig)
SNX6^PX = SNX6^PX (UniProt Q9UNH7); test: as above
SNX32^PX = test: as above
SNX5^PX [8] = target: SNX5^PX (UniProt Q9Y5X3); test: ITC; loop length: approximately 0.5–1 mM peptide titrated into SNX5^PX (50 μM); 100 mM HEPES pH 7.5, 300 mM NaCl, 2 mM βME, 25°C (S4C Fig)
SNX5^PX [9] = target: SNX5^PX (UniProt Q9Y5X3); test: ITC; approximately 2–3 mM peptide titrated into SNX5^PX (300 μM) or the SNX3-retromer complex (10 μM Retromer + 100 μM SNX3); 100 mM HEPES pH 7.5, 300 mM NaCl, 2 mM βME, 25°C; one set of sites model (Fig 1D, 1E, 2B)
[10] = target: SNX3-retromer complex (Retromer + SNX3) (UniProt Q96QK1); test: as above

Sequence of SNX5^PX (Q9Y5X3 20-180): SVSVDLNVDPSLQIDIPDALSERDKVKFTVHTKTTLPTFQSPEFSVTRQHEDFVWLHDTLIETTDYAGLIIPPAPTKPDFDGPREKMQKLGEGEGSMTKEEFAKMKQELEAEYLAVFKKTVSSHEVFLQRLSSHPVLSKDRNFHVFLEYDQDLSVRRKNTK
Sequence of PX domain of SNX6 (SNX6^PX) (Q9UNH7 26-173): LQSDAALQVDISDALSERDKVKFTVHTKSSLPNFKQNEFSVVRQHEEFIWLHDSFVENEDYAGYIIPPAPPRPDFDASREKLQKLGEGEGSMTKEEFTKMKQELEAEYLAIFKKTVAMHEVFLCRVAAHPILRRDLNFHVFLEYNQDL
Sequence of PX domain of SNX5 (SNX5^PX) (Q9Y5X3 25-172): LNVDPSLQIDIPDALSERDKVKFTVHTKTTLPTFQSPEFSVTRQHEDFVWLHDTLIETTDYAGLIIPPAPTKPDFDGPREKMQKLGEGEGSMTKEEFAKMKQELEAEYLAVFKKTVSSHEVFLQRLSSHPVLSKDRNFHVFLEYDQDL

Kd [1]	Kd [2]	Kd [3]	Kd [4]	Kd [5]	Kd [6]	Kd (SNX5^PX [7]) [µM]	Kd (SNX6^PX) [µM]	Kd (SNX32^PX) [µM]	Kd (SNX5^PX [8]) [µM]	Kd (SNX5^PX [9]) [µM]	Kd [10] [µM]	Substance
18 µM and 11 µM and 25 µM	13 µM and 22 µM and 19 µM	9 µM and 26 µM and 19 µM	18 µM and 15 µM and 21 µM	22 µM and 17 µM and 15 µM	44 µM and 36 µM and 28 µM							CI-MPR (aa21–48) peptide, wild type
						18	36	18	18	18	> 400	CI-MPR peptide (aa21–48)
